Experimental data taken from patent publication US20190016816A1 (APTEVO RESEARCH AND DEVELOPMENT, published 2019).

T1: recombinant human 5T4 extracellular domain (ECD) (human)
T1 construct: Monomeric, made in HEK-293; also called Hu 5T4; monomeric 5T4 ectodomain
T1 chain: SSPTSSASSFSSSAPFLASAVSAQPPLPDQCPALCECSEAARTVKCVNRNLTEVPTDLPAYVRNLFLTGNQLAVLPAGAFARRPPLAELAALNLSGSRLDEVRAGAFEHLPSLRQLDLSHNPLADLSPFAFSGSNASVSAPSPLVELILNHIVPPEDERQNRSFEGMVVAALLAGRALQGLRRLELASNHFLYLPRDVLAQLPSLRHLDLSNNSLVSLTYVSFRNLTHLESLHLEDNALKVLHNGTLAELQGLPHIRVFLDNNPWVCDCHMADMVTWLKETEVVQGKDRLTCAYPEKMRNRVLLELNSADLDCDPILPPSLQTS

T2: cynomolgus 5T4 on cells (cynomolgus macaque, UniProt Q4R8Y9 35-420)
T2 construct: whole, on cells; also called CHO-K1/cynomolgus 5T4 transfectants
T2 sequence (looked up): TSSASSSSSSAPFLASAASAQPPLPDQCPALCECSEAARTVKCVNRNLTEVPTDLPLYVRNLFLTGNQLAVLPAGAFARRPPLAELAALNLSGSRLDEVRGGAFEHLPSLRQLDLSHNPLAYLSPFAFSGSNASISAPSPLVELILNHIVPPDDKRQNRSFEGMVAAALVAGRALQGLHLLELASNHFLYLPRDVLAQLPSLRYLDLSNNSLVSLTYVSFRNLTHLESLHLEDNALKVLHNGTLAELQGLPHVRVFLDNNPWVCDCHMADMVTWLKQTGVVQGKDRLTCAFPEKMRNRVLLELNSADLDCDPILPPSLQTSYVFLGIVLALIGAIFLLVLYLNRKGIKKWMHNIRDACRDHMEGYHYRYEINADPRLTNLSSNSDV


Experiments:
[1] = target: T3, human CD137 on cells (human, UniProt Q07011 24-255); experiment: flow cytometry, CHO-K1/human CD137 cells, PE anti-human IgG Fc secondary, MFI (mean)
T3 construct: also called 4-1BB; TNFRSF9 (CHO-K1/human CD137 cells)
T3 sequence (Q07011 24-255 limits assumed): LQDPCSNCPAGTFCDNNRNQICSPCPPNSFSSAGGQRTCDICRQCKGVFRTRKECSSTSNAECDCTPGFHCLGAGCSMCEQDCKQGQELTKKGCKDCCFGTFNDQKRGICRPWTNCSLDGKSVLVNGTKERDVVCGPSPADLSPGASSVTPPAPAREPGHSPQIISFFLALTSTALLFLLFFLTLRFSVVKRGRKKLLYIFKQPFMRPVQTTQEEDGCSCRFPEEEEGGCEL
Description: Binding studies on CHO-K1 cells lines expressing CD137 were performed by standard flow cytometry-based staining procedures. CHO-K1 cells (generated by Alligator) were transfected with human or cynomolgus macaque CD137. A typical experiment would label approximately 100,000 cells per well, in 96-well plates, with a range of 100 nM to 0.05 nM binding molecule in 50 μL of saline buffer with 2% BSA and 2 mM EDTA, for 30 min on ice, followed by washes and incubation with PE-labeled secondary antibody, goat anti-human IgG Fcγ ([…]), for 20 minutes on ice. Signal from bound molecules was detected using a LSR-II™ or a Symphony A3 flow cytometer (BD Biosciences) and analyzed by FlowJo flow cytometry analysis software. […] Nonlinear regression analysis to determine EC₅₀ values was performed in GraphPad Prism 6® graphing and statistics software.

[2] = target: T3, human CD137 on cells; experiment: cell-based or functional assay
[3] = target: T1, recombinant human 5T4 extracellular …; experiment: SPR (Biacore T200, 25 C), bispecific captured on anti-human IgG, monomeric ECD injected, 1:1 fit
Description: (§1) Goat anti-human IgG F(ab′)2 fragment (Jackson ImmunoResearch) at 20 μg/mL in 10 mM sodium acetate (pH 4.5) was immobilized at a density of 2000 response units (RU) onto the flow cell of a CM5 research-grade sensor chip (GE) by standard amine coupling chemistry. Each bispecific variant at 200 nM in HBS-EP+ buffer was captured in the flow cell with the immobilized anti-human IgG at a flow rate of 50 μL/min for 60 sec to reach ˜500 RU response, leaving one flow cell surface unmodified as the reference. Following a 30 sec stabilization period, four different concentrations of each ECD (0, 20, 60, and 180 nM) were injected at 50 μL/min for either 120 sec followed by a 240 sec dissociation period (for 5T4) or 90 sec followed by a 180 sec dissociation period (for 4-1BB). Regeneration was achieved by duplicate injections of 10 mM glycine (pH 1.5) at a flow rate of 50 μL/min for 30 sec followed by HBS-EP+ buffer stabilization for 1 min.
(§2) Sensorgrams obtained from kinetic SPR measurements were analyzed by the double subtraction method. The signal from the reference flow cell was subtracted from the analyte binding response obtained from flow cells with immobilized or captured ligands. Buffer reference responses were then averaged from multiple injections. The averaged buffer reference responses were then subtracted from analyte binding responses, and the final double-referenced data were analyzed with Biacore T200 Evaluation software (2.0, GE), globally fitting data to derive kinetic parameters. All sensorgrams were fitted using a simple one-to-one binding model.

[4] = target: T4, recombinant human CD137 extracellular domain (ECD) (human); experiment: as above
T4 construct: Monomeric, made in HEK-293; also called Hu CD137; human 4-1BB ECD
T4 sequence (chain, as listed by the source limits assumed): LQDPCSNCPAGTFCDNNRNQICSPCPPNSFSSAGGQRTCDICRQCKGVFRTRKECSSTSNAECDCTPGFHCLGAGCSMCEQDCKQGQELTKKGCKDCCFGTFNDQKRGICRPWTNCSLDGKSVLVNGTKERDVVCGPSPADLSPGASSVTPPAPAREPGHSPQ
Description: as §1, §2

[5] = target: T2, cynomolgus 5T4 on cells; experiment: flow cytometry, CHO-K1/cynomolgus 5T4 transfectants, labelled anti-human IgG secondary, MFI (mean)
Description: Binding studies were performed by standard flow cytometry-based staining procedures two cell lines expressing 5T4:CHO-K1 cells (obtained from Alligator) transduced with human or cynomolgus macaque 5T4 and SKOV-3 human ovarian adenocarcinoma cells which express (human) 5T4. All labeling and washes were performed in U-bottom 96-well plates in saline buffer with 0.1% BSA and 2 mM EDTA. Cell were plated at approximately 100,000 cells per well and incubated with a range of 100 nM to 0.05 nM concentrations of test molecules in […], for 30 minutes on ice. Cells were washed three times then incubated for another 30 min on ice with fluorescently-labeled secondary polyclonal antibody, F(ab′)² goat anti-human IgG (Jackson ImmunoResearch Laboratories). The cells were then washed twice and the samples acquired in a BD LSRII or a Symphony A3 flow cytometer. The sample files were analyzed using FlowJo software; the mean fluorescence intensity (MFI-mean) or median fluorescence intensity (MFI-median) of the live population of cells in each well was calculated after gating on live cells (forward vs side scatter). Nonlinear regression analysis to determine EC₅₀ values was performed in GraphPad Prism 6® graphing and statistics software.

EC50 [1] [nM] | Maximum MFI [1] | CD137 reporter assay with HCC1143 cells, EC50 against ALG.APV-004 [2] [fold lower EC50] | CD137 reporter assay with HCC1143 cells, EC50 against ALG.APV-006 and ALG.APV-004 [2] [fold lower EC50] | Kd [3] [nM] | koff [3] [s⁻¹] | kon [3] [M⁻¹ s⁻¹] | Kd [4] [nM] | koff [4] [s⁻¹] | kon [4] [M⁻¹ s⁻¹] | EC50 [5] [nM] | Maximum MFI [5] | Binder
0.41 | 8720 | 10 | ≤ 6 | 35 | 0.00072 | 21000 | 73 | 0.027 | 370000 | 8.5 | 26000 | ALG.APV-187 (bispecific antibody, Optimized ADAPTIR scFv-Fc-scFv homodimer with stabilizing disulfide in the 1210 scFv) EVQLLESGGGLVQPGGSLRLSCAASGFTFSHGSMYWVRQAPGKGLEWVSSISSGSGSTYYADSVKGRFTISHDNSKNTLYLQMNSLRAEDTAVYYCARSSYYGSYYSIDYWGQGTLVTVSSGGGGSGGGGSGGGGSGGGGSDIQMTQSPSSLSASVGDRVTITCRASQSISSYLNWYQQKPGKAPKLLIYAASSLQSGVPSRFSGSGSGTDFTLTISSLQPEDFATYYCQQYYDNLPTFGQGTKLEIKSSEPKSSDKTHTCPPCPAPEAAGAPSVFLFPPKPKDTLMISRTPEVTCVVVDVSHEDPEVKFNWYVDGVEVHNAKTKPREEQYNSTYRVVSVLTVLHQDWLNGKEYKCAVSNKALPAPIEKTISKAKGQPREPQVYTLPPSRDELTKNQVSLTCLVKGFYPSDIAVEWESNGQPENNYKTTPPVLDSDGSFFLYSKLTVDKSRWQQGNVFSCSVMHEALHNHYTQKSLSLSPGSGGGGSGGGGSGGGGSPSEVQLLESGGGLVQPGGSLRLSCAASGFTFSSYAMSWVRQAPGKCLEWVSAISGSGGSTYYADSVKGRFTISRDNSKNTLYLQMNSLRAEDTAVYYCARYYGGYYSAWMDYWGQGTLVTVSSGGGGSGGGGSGGGGSGGGGSDIQMTQSPSSLSASVGDRVTITCRASQSISSFLNWYQQKPGKAPKLLIYAASSLQSGVPSRFSGSGSGTDFTLTISSLQPEDSATYYCQQTYGYLHTFGCGTKLEIKR
0.56 | 8970 | 10 |  | 79 | 0.0012 | 15000 | 59 | 0.033 | 550000 | 7.2 | 23800 | ALG.APV-210 (bispecific antibody, Optimized ADAPTIR scFv-Fc-scFv homodimer with stabilizing disulfide in the 1210 scFv; also called 5T4-CD137 bispecific antibody) EVQLLESGGGLVQPGGSLRLSCAASGFTFSHGSMYWVRQAPGKGLEWVSSISSGSGSTYYADSVKGRFTISHDNSKNTLYLQMNSLRAEDTAVYYCARSSYYGSYYSIDYWGQGTLVTVSSGGGGSGGGGSGGGGSGGGGSDIQMTQSPSSLSASVGDRVTITCRASQSISSYLNWYQQKPGKAPKLLIYAASSLQSGVPSRFSGSGSGTDFTLTISSLQPEDFATYYCQQYYDNLPTFGQGTKLEIKEPKSSDKTHTCPPCPAPEAAGAPSVFLFPPKPKDTLMISRTPEVTCVVVDVSHEDPEVKFNWYVDGVEVHNAKTKPREEQYNSTYRVVSVLTVLHQDWLNGKEYKCAVSNKALPAPIEKTISKAKGQPREPQVYTLPPSRDELTKNQVSLTCLVKGFYPSDIAVEWESNGQPENNYKTTPPVLDSDGSFFLYSKLTVDKSRWQQGNVFSCSVMHEALHNHYTQKSLSLSPGSGGGGSGGGGSGGGGSPSEVQLLESGGGLVQPGGSLRLSCAASGFTFSSYAMSWVRQAPGKCLEWVSAISGSGGSTYYADSVKGRFTISRDNSKNTLYLQMNSLRAEDTAVYYCARYYGGYYSAWMDYWGQGTLVTVSSGGGGSGGGGSGGGGSGGGGSDIQMTQSPSSLSASVGDRVTITCRASQSISSFLNWYQQKPGKAPKLLIYAASSLQSGVPSRFSGSGSGTDFTLTISSLQPEDSATYYCQQTYGYLHTFGCGTKLEIKR
